The text below walks through data of US9340788B2 (priority 2007, dated 2016).

The test system of data set [1] is HCMV. The experiment in a line: Viral attachment and internalization assay (pp65 immunofluorescence). Format: cell-based, Human cytomegalovirus. The conditions noted are these: HEL. The method, then: (A) HEL cells were pretreated with PBS (20 min 4° C.), IMC-3G3 (2 h, 37° C., 10 μg/ml), or PDGF-AA (20 min, 4° C., 10 ng/ml) prior to infection with HCMV (MOI of 1, 4° C., 1 h). Cells were returned to 37° C. for 30 minutes, and processed for pp65^HCMV and PDGFRα double immunofluorescence. […] All conditions were assayed in triplicate cultures. One hundred cells in 4 low magnification fields were counted. Bars represent SD.
Viral Attachment and Internalization Assays. Mouse fibroblasts and HEL cells (72 hours following siRNA transfections) were incubated with HCMV (MOI of 0.5) or mock treated for 1 hour at 4° C., after which cells were returned to 37° C. for 15, 30, or 60 min. Cells were fixed using methanol (20 min) and processed for pp65 immunofluorescence. Four low power fields were counted for each condition and pp65 positive were recorded for each 100 cells. Internalization assays were repeated twice.

Data set [2] concerns HCMV. Description: Measurements of infectious virus production. The format is cell-based, Human cytomegalovirus. Conditions: for infectious virus production (secondary infection): supernatants of siRNA treated HEL harvested 6 dpi used to infect naïve HEL, IE1 staining. The protocol:
HEL cells were transfected with PDGFRα siRNA (smart pool, Dharmacon) or non-targeting control siRNA (Dharmacon) for 48-60 hours when maximum protein knockdown is achieved (panels a and b. Also see FIG. 3d). Cells were then infected with Towne, AD169, TR, or CMV-GFP strains of HCMV for 1 hour, washed and returned to 37° C. in complete growth media. Supernatants obtained from these cultures were used in subsequent assays measuring production of infectious virus as described below. One set of cultures (panels a and b) were used 12 hours post-infection (12 hpi) to measure the expression level of PDGFRα and IE1 by immunofluorescence. […] Cultures infected with supernatants from GFP-CMV treated cells were monitored daily under the fluorescence microscope. Over 40% of the control siRNA treated cells expressed CMV-GFP 1 day post infection (c, 1 dpi) and this number increased to 100% by day 6 (c, 6 dpi). Note the appearance of “plaques”-like groups of cells in control siRNA transfected cells (c, 3 and 6 dpi). […] To measure infectious virus production, supernatants from both control and PDGFRα siRNA treated cultures were harvested at 6 dpi and used to infect naïve HEL cells (secondary infection). […] These experiments were repeated twice.
Measurements of Infectious Virus Production. HEL cells (where indicated were treated with siRNA) were infected with HCMV Towne or CMV-GFP for 1 h, washed and grown for 6 days at 37° C. A duplicate set of cultures was analyzed by immunofluorescence at 12 hours post infection (hpi) to assess percent of IE1 positive cells, as a measure of “primary infection”. Six days post infection supernatant from these cells were centrifuged to exclude cell debris and used to infect naïve HEL cultures as described above. 12 hpi cells were stained for IE1 and IE1 positive cells were counted amongst a total of 100 cells/low magnification microscopic field, 4 fields/condition. These counts were used to determine the level of “secondary infection”—i.e., infectious virus production from the primary infected cells. Where indicated, CMV-GFP infected cells were monitored daily under fluorescence microscope. Each condition was assayed in triplicate.

“Also recorded” adds a separate entry of the source.

B1: p110α siRNA: mixture of 4 RNAi oligos, "smart pool" from Dharmacon, against PI3K p110α, SEQ ID NO: 5-8 (nucleic acid)
chain 1: GCGAAAUUCUCACACUAUU
chain 2: GUGGUAAAGUUCCCAGAUA
chain 3: GCUUAGAGUUGGAGUUUGA
chain 4: GACCCUAGCCUUAGAUAAA
modifications: pool of four siRNAs, further chemistry not given here
With B1, in the data set with HCMV [1] (p110α knockdown), the viral entry result is listed as “allowed”. In addition, in the data set with HCMV [2] (HEL treated with p110α siRNA, secondary infection, insignificant), the “decrease in infectious virus production” value worked out at 10%. In addition, in the data set on HCMV [2], the “infectious virus production (secondary infection)” value is recorded as “lower levels than controls”.

B2: PDGFRα siRNA: "smart Pool" siRNA to hPDGFRα (Dharmacon), SEQ ID NO: 1-4 (nucleic acid)
chain 1: CGAGACUCCUGUAACCUUAUU
chain 2: GAGCUUCACCUAUCAAGUUUU
chain 3: GACAGUGGCCAUUAUACUAUU
chain 4: GAAUAGGGAUAGCUUCCUGUU
modifications: pool of four siRNAs, further chemistry not given here
As to B2, the “viral internalization (nuclear pp65)” value in the data set on HCMV [1] (siRNA knockdown, 60 min after shifting to 37° C., vs non-targeting control siRNA, p<0.001) is on record as “near complete blockade”. For the same molecule, the CMV-GFP expression result in the data set with HCMV [2] (siRNA treated HEL cells monitored daily under fluorescence microscope, 1-6 dpi) is given as “did not express CMV-GFP”. Also, in the data set on HCMV [2], the “infectious virus production (secondary infection)” value was “Near complete inhibition; also recorded: did not produce any infectious virus”.
